Three proteins from paper PMC11900802 can be followed below.

Data set [1] in a line: immunofluorescence, nuclear FOXD1. As to conditions: glycan lost.
The next data set can be described thus: Western blot of FOXD1. The following applies: glycan lost; control: vector control. A general note: Immunoblotting shows a protein as a band on a membrane.

B1: FOXD1: tunicamycin (protein)
parent chain: MTLSTEMSDASGLAEETDIDVVGEGEDEEDEEEEDDDEGGGGGPRLAVPAQRRRRRRSYAGEDELEDLEEEEDDDDILLAPPAGGSPAPPGPAPAAGAGAGGGGGGGGAGGGGSAGSGAKNPLVKPPYSYIALITMAILQSPKKRLTLSEICEFISGRFPYYREKFPAWQNSIRHNLSLNDCFVKIPREPGNPGKGNYWTLDPESADMFDNGSFLRRRKRFKRQPLLPPNAAAAESLLLRGAGAAGGAGDPAAAAALFPPAPPPPPHAYGYGPYGCGYGLQLPPYAPPSALFAAAAAAAAAAAFHPHSPPPPPPPHGAAAELARTAFGYRPHPLGAALPGPLPASAAKAGGPGASALARSPFSIESIIGGSLGPAAAAAAAAQAAAAAQASPSPSPVAAPPAPGSSGGGCAAQAAVGPAAALTRSLVAAAAAAASSVSSSAALGTLHQGTALSSVENFTARISNC
On to B1, for which the localisation_or_trafficking result in data set [1] (control: untreated) is listed as “decreases”.

B2: FOXD1: GEM+TM (protein)
parent chain: MTLSTEMSDASGLAEETDIDVVGEGEDEEDEEEEDDDEGGGGGPRLAVPAQRRRRRRSYAGEDELEDLEEEEDDDDILLAPPAGGSPAPPGPAPAAGAGAGGGGGGGGAGGGGSAGSGAKNPLVKPPYSYIALITMAILQSPKKRLTLSEICEFISGRFPYYREKFPAWQNSIRHNLSLNDCFVKIPREPGNPGKGNYWTLDPESADMFDNGSFLRRRKRFKRQPLLPPNAAAAESLLLRGAGAAGGAGDPAAAAALFPPAPPPPPHAYGYGPYGCGYGLQLPPYAPPSALFAAAAAAAAAAAFHPHSPPPPPPPHGAAAELARTAFGYRPHPLGAALPGPLPASAAKAGGPGASALARSPFSIESIIGGSLGPAAAAAAAAQAAAAAQASPSPSPVAAPPAPGSSGGGCAAQAAVGPAAALTRSLVAAAAAAASSVSSSAALGTLHQGTALSSVENFTARISNC
On to B2, for which, in data set [1] (control: GEM alone), the localisation_or_trafficking result is listed as “decreases”.

B3: FOXD1: ALG3 knockdown (protein)
parent chain: MTLSTEMSDASGLAEETDIDVVGEGEDEEDEEEEDDDEGGGGGPRLAVPAQRRRRRRSYAGEDELEDLEEEEDDDDILLAPPAGGSPAPPGPAPAAGAGAGGGGGGGGAGGGGSAGSGAKNPLVKPPYSYIALITMAILQSPKKRLTLSEICEFISGRFPYYREKFPAWQNSIRHNLSLNDCFVKIPREPGNPGKGNYWTLDPESADMFDNGSFLRRRKRFKRQPLLPPNAAAAESLLLRGAGAAGGAGDPAAAAALFPPAPPPPPHAYGYGPYGCGYGLQLPPYAPPSALFAAAAAAAAAAAFHPHSPPPPPPPHGAAAELARTAFGYRPHPLGAALPGPLPASAAKAGGPGASALARSPFSIESIIGGSLGPAAAAAAAAQAAAAAQASPSPSPVAAPPAPGSSGGGCAAQAAVGPAAALTRSLVAAAAAAASSVSSSAALGTLHQGTALSSVENFTARISNC
B3: the expression_or_secretion entry in the data set “Western blot of FOXD1” was “decreases”. For the same protein, in data set [1] (control: vector control), the localisation_or_trafficking result is on record as “decreases”.
